Data reported in a protein production outcome set (Wang et al. 2014).

Assay: label from the status in PepcDB records

Row | Sequence | protein production
1 | MDKVFGRTQGLKKSELKRISNLYRRRLPKDRVLTPELAHTLAALSAEVGRPLSLVLDREGRVVRVAVGDAKDVPFPEEGWSERRLSGYRLLHTHLGPGGLSRPDLSVLFLRRLDNLAALEVEADGRPGLLHLAFLSPPRALEEDWRVLPPKPFHQYLDLDLWGEVMALEEELSRQARVLEVRDGSGERALLVGVDTGEGPEAEAVLRELAELTRTAGGVPVKQILVFRKSLDPRYLVGLGKLEELKSLAYHENASTLIFGVDLTPAQAREIERVTGLKVLDRTQLILDIFALHAKTPEAQAQVELAQLRYLLPRLVGKGKEMSRLGGGIGTRGPGETKLEVDRRRLQDRIAHLSRKLQDYALRRQEARQKRKRRGVPLVAVVGYTNAGKTTLLRALTRAGEEGEDKLFATLRPLTRRGFLPGVGEVLFTDTVGFIRHMPEELLTAFRATLEEVREADVLVHVLDASEEGALERHRVVRDLLLDLGVEAPVVLALNKADRAAPYDLYFLGERLGGVPVSALKGTGLKELKEALARALLDLGVRPQAWAQYT | failed
2 | MFFMQNTKSIYIIIPVHNRREVTLQCLTTLKLNEDLDQYRIVVVDDDSTDGTREAVNAQFPQVIVLEGDGNLWWTGAVKMGMKYAYEQGGELFILLNDDCYPQMGTISKLLKKIDENPNSVIGVQCLDPKSKEPSYGGILTNNNKLQVVKIFHTFNSMTDCDALNGNLLAIPRNIVDKVGFPDAKRFPHHFGDFVYTNRIKKEGYKLFLCNDIVALCEYHYNGLSKKSSQFNRFQELFTPTSQFYWKTEMKGYIELFGIKGIIIYLHKRCLLSSLKVIFLLLDQKLTL | failed
3 | MAAPSVPTPLYGHVGRGAFSDVYEPAEDTFLLLDALEAAAAELAGVELCLEVGAGSGVVSAFLASMIGPQALYMCTDINPKAAACTLETARCNRVHLQPVITDLVQGLLPRLKGKVDLLVFNPPYVVTPPEEVGSHGIEAAWAGGRNGREVMDRFFPLASQLLSPRGLFYLVTIKENNPVLPRSYGNAANVPELGSGQLGENLLAFKSNIGGLSKGKLYH | failed
4 | MYVFIEPNDLKDYLITVYDERNRAIRKQTQVYCFYLMIVLFVALFFFFPCLTIRDLVSYKLPLIFAYLYLIIRSLVAKKMEALGKITTNSQKPPFDTSQVLC | failed
5 | MTENVVCTGAVNAVKEVWEKRIKKLNEDLKREKEFQHKLVRIWEERVSLTKLREKVTREDGRVILKIEKEEWKTLPSSLLKLNQLQEWQLHRTGLLKIPEFIGRFQNLIVLDLSRNTISEIPPGIGLLTRLQELILSYNKIKTVPKELSNCASLEKLELAVNRDICDLPQELSNLLKLTHLDLSMNDFTTIPLAVLNMPALEWLDMGSNKLEQLPDTIERMQNLHTLWLQRNEITCLPQTISNMKNLGTLVLSNNKLQDIPVCMEEMANLRFVNFRDNPLKLKVSLPPSEGTDEEEERELFGLQFMHTYIQESRRRADHQVNGSTTLPISINTDG | not failed
6 | MTTYLIIGANRVGQLVARQLATESATVRLLHDGKETLPSDLATQVTELTGDLTQEATYTAALQDQPIIFSALTGMDVDLAFEALFDAQYHQRLTFQRFVMLSTAGVDQEVTGDLAYPGITDVAEYLKQQRYAAKLVDEAEFPYTILRPVTLADSPRRDPQIIKEGAAVPAGTVSRETVAQVAVSLLQAGGADYQSLAICLEHHHHHH | failed
7 | MNSAVGAELFMGDDGVSLRPGLGGTESVLESWRYIMGKLRVGRFLISSRVNGPGRRFVIWFQGCPIRCRGCLNPEFHDEDGGHLIETARLVDMIRDLRDEIEGVTFTGGEPLAQAMELVKLAGAVKSMGLTVVCFTGYEMDEILKGNIEGGLELLEFVDVLIDGPYIEEKSAPLLWRGSTNQDVYFLTERYAEFRDRVMACSEMEAELKVGADGVYMTGIFDVEFWEELRRRLGDGSLEHHHHHH | failed
8 | MPLVTRNIEPRHLCRQTLPSVRSELECVTNITLANVIRQLGSLSKYAEDIFGELFTQANTFASRVSSLAERVDRLQVKVTQLDPKEEEVSLQGINTRKAFRSSTIQDQKLFDRNSLPVPVLETYNTCDTPPPLNNLTPYRDDGKEALKFYTDPSYFFDLWKEKMLQDTKDIMKEKRKHRKEKKDNPNRGNVNPRKIKTRKEEWEKMKMGQEFVESKEKLGTSGYPPTLVYQNGSIGCVENVDASSYPPPPQSDSASSPSPSFSEDNLPPPPAEFSYPVDNQRGSGLAGPKRSSVVSPSHPPPAPPLGSPPGPKPGFAPPPAPPPPPPPMIGIPPPPPPVGFGSPGTPPPPSPPSFPPHPDFAAPPPPPPPPAADYPTLPPPPLSQPTGGAPPPPPPPPPPGPPPPPFTGADGQPAIPPPLSDTTKPKSSLPAVSDARSDLLSAIRQGFQLRRVEEQREQEKRDVVGNDVATILSRRIAVEYSDSEDDSSEFDEDDWSD | not failed
9 | MLINLGQRLENLRTLVGFLKAARAESLDRVIAIADSLNKTEIAAQSRRWMLSHPAVAQLAAENYAPARPALEALNQLPTGTLGQAYASLLLGQNLSPDDLQPAKPATNADEYIVERLRVTHDIAHVITGFGTDPASELGLQAFNLRQNRTPLAVLLIAGGLLKTIKEGRDPAPILRQVARGIELADKAELLVAQRWEDHWDWPLEQWRQVLNLPV | failed
10 | MSAARQGVAQARRIVVKVGSSSLTTAAGGLDADRVDALVDVLAKSRSGGEKEIVLVSSGAIAAGLAPLGLRRRPKDLARQQAAASVGQGLLVARYTASCARHGIRVGQVLLTSDDTSRRAHHRNASRTLDKLLAMGALPVVNENDTVATDEIRFGDNDRLAALVAHLVRADLLVLLSDVDGVYDGDPSKPGTSRVAQVHGPQDLAHVEIGSAGRAGVGTGGMVTKIEAARIAAAAGIPVVLTSAVHAADALAGRDTGTYFHPTGKRSADRLLWLQHASTPQGALTLDDGAVRAVVERRKSLLPAGIAAVEGEFTAGDPVELRDSEGRAVARGLVSFDAKEIPQLLGRSTRELARELGPAYEREVVHRDDLVLLQP | failed
11 | MRPKVSVALATYNGEKYIEEQLESIIKQTRAPDELVICDDCSNDETINIITKKIKNAHFDVKLVSNDKNIGYVQNFSKALEMSSGDIVFLCDQDDVWLSDKIEFIINKFNTRPDIQLLIHDVDYCKEDLTPIGQTKLQRMESNFDIESDYVVGMATAVRRSFLVHCLPVPSAPEVTHDEWLHDCARVLGCKGIVREVLALYRRHSLNVTAPSRLNVDFVTTRHYFGNESLAFLKLFRMETDLGSPDISPLVQWLDSRKMVLLDNGFSSEDRINTFIQYEEKRLRARNSRQSILRLDRWKRLFPIYDLYRSGGYHYYCGWKSALKDLLRTYALEHHHHHH | not failed
12 | MDRLPILKLGDCLLVTIQVELHDRLALTLQDDLTTMIANTGARGVLIDISALDIVDSFIARVLGNIAAMSRVLGAETMVVGMQPAVAITLVELGVTWQHMHTALSVERGLERLKVLIAERHTLRGHSPRGKRGGGVDGSRH | failed
13 | MKKFVTRRLGRKKRRDTEIVLPTKDDDCREEHGSEVSCMEDVEEMLQELSMKGEFVFGSFWRQGDSAANDFDFGNSQYEIANYKDHRSLSLLITQDVLLER | failed
14 | MEAIDQLVGQWQKDGLSPSQVAEKFSKCVLYVTCEPCIMCASALSFLGIKEVYYGCPNDKFGGCGSILSLHLGSEEAQRGKGYKCRGGIMAEEAVSLFKCFYEQGNPNAPKPHRPVVQRERT | failed
15 | MSQMSPGQARVVDPILSTHARGYRQSTLIGKKLFPVAPVAQYGGKILTFGKEAFRLYNTKRAPGANTKRIDFGYEGDPYSIVPSALEAKVPRELMRDASQVPGIDLGARSVNTVLRIMALAHEHECAQIALDPAKYNADHKVKLVGSARWTSPDSDPTKDVETAKEAIADSIGMEPNRLMLSRKALSACKYHPKLIERVKYTRAESITIDMLKALWEVEEIVVGTARVATGANDSFGDVWGPDVWLGYVSDNPDPSVEEPSFGYTYQIEGHPLVEVPYWDNNAKSWIYGVSDDNTPALSGMLAGYLIEDAGLPAA | not failed
16 | MNDTYQPINCDDYDNLELACQHHLMLTLELKDGEKLQAKASDLVSRKNVEYLVVEAAGETRELRLDKITSFSHPEIGTVVVSES | not failed
17 | MDTTFGLDLARVETLFKRELRRFDELHPRSAQAYRENRRHWLYGAPLHWMQQWPGNCPLLVKEAQGARVTDIDGQQYVDFALGDSGAMFGHAQPAVADAIARQARRGSTLMLPTEDSLWVGAELARRFGLPYWQVTTSATDANRFVLRLCRMLSGRDKVVVFNCNYHGSVDESQVEFDAAGRMVPRAGVHPNGVRHATTTRLVEFNDLDALEAALAHGDVAAVLTEPFMTNVGMVPPAEGFHAGLRELTRRHDVALIIDETHTISCGPAGYSGAHGLEPDFFVLGKCIAGGIPSAVWGCSQAQAERIWAVLPHFRPGQAINHFGFGGTLAGNALQLAAMRATFAEVMTEDAYRHMFQLAAQLEAGVRATLEELRLPWHVTRIGARVEYLFMTHAPRNGGEAHHARNGLIEACLHLYLLNRGVLLTPFHNMALTCPATRAEDVELHDRLLRDCLGELLERPS | failed
18 | METSSSSPVKPRRKDKDEDKFRIGATLAFIVVIIGIGVPMWWRTTTVYRVNLPSTEILSLSKIPIKTAVQVAIYTQQTSRGQLLIAELQNAFSDNEIWSVEFKQLSPTPMTQEAHTPAALEKLLLENHVQSVGDFMFIEWPKLQEELLLTTERSALMRSDTPSNKIAQLLHAKILQTYRINQILSTDERMGAKSEAPQPAYDVIVSVLNPKPRLTHAKWNIAMAVKTYIEPWLAKVSGVSNYTVRSQWKYRVAIEADLKQVRDQSKLGRHYALQETALPHLLTSIAQNLSASTTDKPAINLVVYIPPCHIAPLHIYNSKDQRLTRNDVDAFISPPWGGFIIANPPEHVCLAAMSDQEAVPYHVSTTDNMQVMLDQLHKLLDISSELQMEGVKVVDIEQLEPRRWEYEAYLRRSAIRHISTASSTLQSLIKLLDQISYIVIDDEVGAAITNSYADILAAKAALLEHRLADASVLAKRAFVASERGFFDASLLAQLYFPDEQKYAIYIPLFLPIMVPVLSSFNMLRGVLQARRKEKQS | failed
19 | MGQKIHAFMFPWFAFGHMTPYLHLGNKLAEKGHRVTFLLPKKAQKQLEHQNLFPHGIVFHPLVIPHVDGLPAGAETASDIPISLVKFLSIAMDLTRDQIEAAIGALRPDLILFDLAHWVPEMAKALKVKSMLYNVMSATSIAHDLVPGGELGVAPPGYPSSKALYREHDAHALLTFSGFYKRFYHRFTTGLMNCDFISIRTCEEIEGKFCDYIESQYKKKVLLTGPMLPEPDKSKPLEDQWSHWLSGFGQGSVVFCALGSQTILEKNQFQELCLGIELTGLPFLVAVKPPKGANTIHEALPEGFEERVKGRGIVWGEWVQQPSWQPLILAHPSVGCFVSHCGFGSMWESLMSDCQIVFIPVLNDQVLTTRVMTEELEVSVEVQREETGWFSKENLSGAIMSLMDQDSEIGNQVRRNHSKLKETLASPGLLTGYTDKFVDTLENLVNEQGYIS | failed
20 | MLDSINRVLDRPDFGKLFLRVSFSVLMLFHGWHKLHGGIGFIEGMLTNAGLPAFVGYGVYVGEIIIPIMMILGIFTRPAALIFSFTMFVASLLVHSGDFLSLEKTGAWAVEGAAVFFFAGIAIALLGSGKYSVMSNPRWR | failed
21 | MEKNQSDDDGTALIFLGTGCSGAVPDFRCLLQPSDPPCHVCSQSLSLLPHLNPNYRCNTSLLIDYCSKEEDGRHKYILIDVGKSFREQIILTHEHADAVHGLDEIRSLQPRGATIVDTDPLPVFLSQFTMESIATRFPYLVEKKVKEVPRRVSLLDWKNIEENCDEPFAASGLSFTPLPVMHGEDYIALGFLFGDKSKVAYISDVSRIPPSTEYAISKAGAGQLDLLILDTNIPWKRGPHPTHICFTEALEILKRLCPKRALLTGMTHEFDHHEYNEILAEWSLRDYVDF | failed
